This test addresses FLAG-tagged TDP-marginal peptide 20 (TDP-MP20), shortened splicing isoform of TDP-43 (human (cDNA cloned from HEK293T cells)). Description: co-IP; HEK293T cells co-overexpressing a FLAG-tagged TDP-43 isoform and FL-Venus; IP with anti-DDDDK (FLAG) antibody, 3 h at 4°C, Protein G Mag Sepharose beads, three low-salt washes and one high-salt wash; Venus signal normalised to FLAG signal in the IP (n = 3).

Chain of FLAG-tagged TDP-marginal peptide 20 (TDP-MP20), shortened splicing isoform of TDP-43 (human (cDNA cloned from HEK293T cells)) (Q13148 whole entry, canonical isoform): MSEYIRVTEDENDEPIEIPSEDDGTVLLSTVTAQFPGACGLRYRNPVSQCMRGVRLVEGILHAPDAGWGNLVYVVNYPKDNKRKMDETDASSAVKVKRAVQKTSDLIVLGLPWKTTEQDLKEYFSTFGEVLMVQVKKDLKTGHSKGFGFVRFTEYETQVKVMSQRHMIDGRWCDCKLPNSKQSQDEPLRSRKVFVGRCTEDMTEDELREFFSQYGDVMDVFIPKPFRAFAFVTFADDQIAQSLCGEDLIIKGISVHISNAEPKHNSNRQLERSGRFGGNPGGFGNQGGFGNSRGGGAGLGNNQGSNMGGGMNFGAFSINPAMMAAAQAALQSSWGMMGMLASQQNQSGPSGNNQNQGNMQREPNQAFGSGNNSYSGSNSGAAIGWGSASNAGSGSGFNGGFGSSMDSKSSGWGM

For the substance “TDP-FL fused to Venus (from UniProt Q13148 1-414) (natural protein)”, the fold of co-precipitated FL-Venus (ratio of FL-Venus to FLAG in the IP) relative to FLAG-FL turned out to be 5.7 fold and the fold of co-precipitated FL-Venus (ratio of FL-Venus to FLAG in the IP) relative to FLAG-MP18 came out at 2.3 fold.

(Values after publication PMC12333503.)
